Paper PMC5589848, “BMP-2 induced Dspp transcription is mediated by Dlx3/Osx signaling pathway in odontoblasts”

Target: Dlx3 (recombinant) (UniProt O60479 1-287)
Experiment: EMSA; anti-Dlx3 supershift; cold competitor 100x; EMSA as described previously (binding buffer not given); 5% native polyacrylamide gel in 1x TBE; 100-fold molar excess of unlabeled competitor
Settings: protein: recombinant; label: 32P; blunt

Chain of Dlx3 (recombinant) (O60479 whole entry): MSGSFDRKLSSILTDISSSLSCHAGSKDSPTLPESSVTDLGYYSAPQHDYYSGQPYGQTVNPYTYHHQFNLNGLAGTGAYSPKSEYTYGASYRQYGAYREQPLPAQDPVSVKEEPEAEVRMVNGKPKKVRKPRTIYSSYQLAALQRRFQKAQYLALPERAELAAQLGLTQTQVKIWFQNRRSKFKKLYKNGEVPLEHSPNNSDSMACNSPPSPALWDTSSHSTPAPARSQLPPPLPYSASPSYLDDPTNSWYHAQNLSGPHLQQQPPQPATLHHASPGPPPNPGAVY

B1: Dlx3I Oligo (dsDNA)
DNA 1: GAGCTATTTAATTAAGTGAAA
DNA 2: TTTCACTTAATTAAATAGCTC
**Q.** Does B1 bind?
**A.** Result: binds

B2: Dlx3II Oligo (dsDNA)
DNA 1: GTTGAGAAAATTATCAAACTGA
DNA 2: TCAGTTTGATAATTTTCTCAAC
**Q.** Does B2 bind?
**A.** Result: binds
